Assay [1] deals with T1, Fc-tagged recombinant PDGFRA monomeric fragment (human, UniProt P16234 24-528).
T1 chain: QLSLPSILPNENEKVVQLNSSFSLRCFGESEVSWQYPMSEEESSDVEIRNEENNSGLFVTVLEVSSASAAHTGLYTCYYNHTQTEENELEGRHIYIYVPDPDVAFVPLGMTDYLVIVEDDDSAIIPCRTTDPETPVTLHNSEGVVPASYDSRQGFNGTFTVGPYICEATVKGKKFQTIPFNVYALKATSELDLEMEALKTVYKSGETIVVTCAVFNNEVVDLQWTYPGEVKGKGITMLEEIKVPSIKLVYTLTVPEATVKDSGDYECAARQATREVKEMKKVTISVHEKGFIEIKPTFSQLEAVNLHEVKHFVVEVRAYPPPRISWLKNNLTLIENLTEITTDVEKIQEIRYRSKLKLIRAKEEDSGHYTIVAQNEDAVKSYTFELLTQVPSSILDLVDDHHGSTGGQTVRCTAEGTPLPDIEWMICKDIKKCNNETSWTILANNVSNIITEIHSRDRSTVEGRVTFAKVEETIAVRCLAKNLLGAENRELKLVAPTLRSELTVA
Kind of assay: SPR. For orientation: In SPR one partner is held on a chip, and binding of the other changes the refractive index at the surface.

Assay [2] addresses T2, Fc-tagged recombinant PDGFRA monomeric fragment (human, UniProt P16234 24-528).
T2 construct: PDGFRA (platelet-derived growth factor receptor alpha), human, recombinant 'monomeric fragment'; also called Fc-PDGFRA monomeric fragment; Fc-tagged rPDGFRA; source: bought: R&D
Description: SPR; Biacore T200, CM5 chip, amine coupling, hPDGFRA immobilised, Endocan as analyte; HBS-EP (0.15 M NaCl, 3 mM EDTA, 0.005% P20, 0.01 M Hepes pH 7.4), 30 ul/min; KD = koff/kon at five concentrations; repeated with 1 and 10 ug/ml heparin without effect. The settings on record: both partners purified.

B1: recombinant His-tagged Endocan (ligand, UniProt Q9NQ30 20-184, looked up)
chain: WSNNYAVDCPQHCDSSECKSSPRCKRTVLDDCGCCRVCAAGRGETCYRTVSGMDGMKCGPGLRCQPSNGEDPFGEEFGICKDCPYGTFGMDCRETCNCQSGICDRGTGKCLKFPFFQYSVTKSSNRFVSLTEHDMASGDGNIVREEVVKENAAGSPVMRKWLNPR
notes: Endocan (ESM1 gene product), recombinant; the introduction describes the mature polypeptide as 165 amino acids; also called rEndocan; His6-Endocan; source: bought: R&D
Consider B1, for which, in assay [1], the koff (in general, the first-order rate constant of dissociation) was determined as 0.045 s⁻¹. Further, in assay [2], the equilibrium dissociation constant (Kd) (usually the equilibrium constant for the complex coming apart) was found to be 345 nM.

(Values after publication PMC11707362, “Endothelial-secreted Endocan activates PDGFRA and regulates vascularity and spatial phenotype in glioblastoma” (Nature Communications, 2025).)
